For assay [1], the target named is recombinant cynomolgus GPC3 (cyGPC3) (R&D Systems) (cynomolgus, UniProt A0A2K5VK50 24-558). In words: ELISA, cyGPC3 coated. Here is the method:
Recombinant huGPC3 (R&D Systems) at the concentration of 1 μg/mL in PBS was coated overnight on microtiter plates at 4° C. After five washes with 100 μL PBS-0.05% T (PBS supplemented with 0.05% (v/v) Tween 20), the plates were blocked with 2% BSA (w/v) in PBS-0.1% T (PBS-0.1% T-2% BSA) for 1 h at room temperature. After washing with 100 μL PBS-0.05% T (PBS supplemented with 0.05% (v/v) Tween 20) five times, exemplary fusion proteins (SEQ ID NOs: 87 and […] and CD137Ac1-Fusion 1 to 7) or the GPC3 antibody as include in the fusion proteins (SEQ ID NOs: 81 and 82) at different concentrations were added to the wells and incubated for 1 h at room temperature, followed by another wash step. Bound molecules under study were detected by incubation with 1:5000 diluted anti-human IgG Fc-HRP (Jackson Laboratory) in PBS-0.1% T-2% BSA. After an additional wash step, fluorogenic HRP substrate (QuantaBlu, Thermo) was added to each well and the fluorescence intensity was detected using a fluorescence microplate reader.
The same ELISA setup was also employed to determine the binding potency of fusion proteins to cynomolgus GPC3 and huCD137, where recombinant cyGPC3 (R&D Systems) or huCD137-His (recombinant human CD137 with C-terminal polyhistidine tag, R&D Systems) was instead coated on a microtiter plate. The testing agents were similarly titrated and bound agents were detected via anti-NGAL-HRP. […]
Background: In an ELISA, binding on a coated surface is turned into a signal by an enzyme label.

The target in assay [2] is T1, human CD137 expressed on cells (Flp-In-CHO::huCD137; NFkB-luc2/CD137 Jurkat cells) (human, UniProt Q07011 24-255). In words: cell-based or functional assay.
T1 sequence (Q07011 24-255): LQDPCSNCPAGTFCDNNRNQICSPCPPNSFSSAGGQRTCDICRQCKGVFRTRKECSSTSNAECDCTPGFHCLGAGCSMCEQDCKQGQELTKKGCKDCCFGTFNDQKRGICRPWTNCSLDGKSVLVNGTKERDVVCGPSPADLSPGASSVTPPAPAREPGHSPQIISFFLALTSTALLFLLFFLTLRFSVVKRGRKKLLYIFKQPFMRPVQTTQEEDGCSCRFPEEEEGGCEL
In assay [3] the target is T2, human GPC3 expressed on cells (SK-Hep1::huGPC3; HepG2, Hep3B and MKN-45 tumor cells) (human, UniProt P51654 25-554).
T2 construct: whole, on cells; also called GPC3-positive tumor cells; human GPC3-expressing cells
T2 sequence (P51654 25-554 limits assumed): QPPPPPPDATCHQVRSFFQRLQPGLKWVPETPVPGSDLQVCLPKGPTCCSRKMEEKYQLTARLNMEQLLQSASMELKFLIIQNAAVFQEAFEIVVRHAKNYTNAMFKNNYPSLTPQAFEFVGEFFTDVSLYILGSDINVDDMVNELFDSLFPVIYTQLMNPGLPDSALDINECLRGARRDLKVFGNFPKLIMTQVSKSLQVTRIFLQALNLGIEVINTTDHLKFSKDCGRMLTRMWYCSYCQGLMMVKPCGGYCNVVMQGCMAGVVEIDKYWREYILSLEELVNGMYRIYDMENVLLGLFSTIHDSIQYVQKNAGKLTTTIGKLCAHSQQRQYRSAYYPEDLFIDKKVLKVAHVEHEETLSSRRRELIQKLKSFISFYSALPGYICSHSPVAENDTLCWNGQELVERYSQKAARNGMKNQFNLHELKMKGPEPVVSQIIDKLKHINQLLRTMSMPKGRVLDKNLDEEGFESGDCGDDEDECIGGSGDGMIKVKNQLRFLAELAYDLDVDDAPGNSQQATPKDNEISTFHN
In words: flow cytometry on HepG2 tumor cells (GPC3 high). Here is the method:
(§1) 5×10⁴ cells per well were incubated for 1 h in ice-cold PBS containing 5% fetal calf serum (PBS-FCS). A dilution series of the testing molecule were added to the cells and incubated for 1 h on ice. Cells were washed twice with PBS and then incubated with a goat anti-hlgG Alexa647-labeled antibody or goat anti-hlgG Alexa488-labeled antibody for 30 min on ice. Cells were subsequently washed and analyzed using iQue Flow cytometer (Intellicyte Screener). Mean geometric fluorescent signals were plotted and fitted with Graphpad software. The geometric means of the fluorescence intensity were used to calculate EC₅₀ values using a four-parameter logistic regression with bottom fixed to background.
(§2) For flow cytometric analysis, tumor cell lines with different GPC3 expression levels (high to moderate expression: HepG2>Hep3B>MKN-45) and GPC3 negative cell line NCI-N87 were incubated with an exemplary fusion protein SEQ ID NOs: 87 and 82, the GPC3 antibody or the CD137 specific lipocalin mutein (Fc fusion) as included in the fusion protein (SEQ ID NOs: 81 and 82 and SEQ ID NO: 98, respectively), a reference CD137 antibody SEQ ID NOs: 26 and 27, or an isotype control (SEQ ID NO: 24 and 25), and detected using a fluorescently labeled anti-human IgG antibody as described in Example 6.
On the technique in general: Flow cytometry measures light scatter and fluorescence of single cells or particles in a stream.

The target of assay [4] is T2, human GPC3 expressed on cells …. In words: flow cytometry on Hep3B tumor cells (GPC3 positive). The procedure: as §1, §2
The target is the same in assay [5]. In words: flow cytometry on SK-Hep1::huGPC3 cells, anti-human IgG detection. Here is the method:
(§3) For flow cytometric analysis, respective cell lines were incubated with an exemplary fusion protein (SEQ ID NOs: 87 and 82), the GPC3 antibody or the CD137 specific lipocalin mutein (Fc fusion) as included in the fusion protein (SEQ ID NOs: 81 and 82 and SEQ ID NO: 98, respectively), a reference CD137 antibody SEQ ID NOs: 26 and 27, or an isotype control (SEQ ID NOs: 24 and 25) and detected using a fluorescently labeled anti-human IgG antibody in FACS analysis as described in the following:
as §1

For assay [6], the target named is T3, recombinant human GPC3 (huGPC3) (R&D Systems) (human, UniProt P51654 25-559).
T3 construct: also called biotinylated huGPC3
T3 sequence (P51654 25-559 limits assumed): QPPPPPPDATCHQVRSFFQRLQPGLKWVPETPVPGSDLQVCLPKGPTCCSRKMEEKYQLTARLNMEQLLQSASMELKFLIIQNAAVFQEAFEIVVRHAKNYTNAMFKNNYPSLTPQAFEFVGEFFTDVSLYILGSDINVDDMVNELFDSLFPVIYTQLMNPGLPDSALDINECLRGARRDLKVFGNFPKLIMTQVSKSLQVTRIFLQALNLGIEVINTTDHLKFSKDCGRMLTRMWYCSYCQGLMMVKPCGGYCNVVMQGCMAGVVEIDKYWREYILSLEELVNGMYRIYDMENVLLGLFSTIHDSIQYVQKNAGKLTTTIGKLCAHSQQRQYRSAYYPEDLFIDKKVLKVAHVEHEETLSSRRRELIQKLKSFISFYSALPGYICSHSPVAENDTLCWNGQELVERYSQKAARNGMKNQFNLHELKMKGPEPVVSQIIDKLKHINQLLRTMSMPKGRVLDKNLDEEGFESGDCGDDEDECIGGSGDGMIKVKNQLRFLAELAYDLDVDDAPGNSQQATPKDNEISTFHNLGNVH
In words: SPR (Biacore T200), binder captured by anti-human IgG Fc, huGPC3 as analyte, 1:1 model. The procedure: The anti-human IgG Fc antibody (GE Healthcare) was immobilized on a CM5 sensor chip using standard amine chemistry: the carboxyl groups on the chip were activated using 1-ethyl-3-(3-dimethylaminopropyl)-carbodiimide (EDC) and N-hydroxysuccinimide (NHS). Subsequently, anti-human IgG Fc antibody solution (GE Healthcare) at a concentration of 25 μg/mL in 10 mM sodium acetate (pH 5.0) was applied at a flow rate of 5 μL/min until an immobilization level of 6000-10000 resonance units (RU) was achieved. Residual non-reacted NHS-esters were blocked by passing a solution of 1M ethanolamine across the surface. The reference channel was treated in an analogous manner. Subsequently, testing fusion proteins (SEQ ID NOs: 87 and 82 and CD137Ac1-Fusion 1) or the GPC3 antibody as included in the fusion protein (SEQ ID NOs: 81 and 82) at 0.2 μg/ml in HBS-EP+ buffer was captured by the anti-human IgG-Fc antibody at the chip surface for 180 s at a flow rate of 10 μL/min. After each capture step, the needle was washed.
The binding assay was carried out with a contact time of 180 s, a dissociation time of 900 s, and a flow rate of 30 μL/min. After each injection, the needle was cleaned with 40 mM NaOH+20% isopropanol. All measurements were performed at 25° C. […] Prior to the protein measurements, three startup cycles were performed for conditioning purposes. Data were evaluated with Biacore T200 Evaluation software (v2.0). Double referencing was used and the 1:1 binding model was used to fit the raw data.

The target in assay [7] is T1, human CD137 expressed on cells …. In words: flow cytometry, CHO cells transfected with human CD137, detection labelled anti-human IgG, GeoMean BL1-H [lower graph]. Here is the method: as §3, §1

B1: fusion protein SEQ ID NOs: 87 and 82 (bispecific antibody, human IgG4 S228P, kappa, F234A L235A)
heavy: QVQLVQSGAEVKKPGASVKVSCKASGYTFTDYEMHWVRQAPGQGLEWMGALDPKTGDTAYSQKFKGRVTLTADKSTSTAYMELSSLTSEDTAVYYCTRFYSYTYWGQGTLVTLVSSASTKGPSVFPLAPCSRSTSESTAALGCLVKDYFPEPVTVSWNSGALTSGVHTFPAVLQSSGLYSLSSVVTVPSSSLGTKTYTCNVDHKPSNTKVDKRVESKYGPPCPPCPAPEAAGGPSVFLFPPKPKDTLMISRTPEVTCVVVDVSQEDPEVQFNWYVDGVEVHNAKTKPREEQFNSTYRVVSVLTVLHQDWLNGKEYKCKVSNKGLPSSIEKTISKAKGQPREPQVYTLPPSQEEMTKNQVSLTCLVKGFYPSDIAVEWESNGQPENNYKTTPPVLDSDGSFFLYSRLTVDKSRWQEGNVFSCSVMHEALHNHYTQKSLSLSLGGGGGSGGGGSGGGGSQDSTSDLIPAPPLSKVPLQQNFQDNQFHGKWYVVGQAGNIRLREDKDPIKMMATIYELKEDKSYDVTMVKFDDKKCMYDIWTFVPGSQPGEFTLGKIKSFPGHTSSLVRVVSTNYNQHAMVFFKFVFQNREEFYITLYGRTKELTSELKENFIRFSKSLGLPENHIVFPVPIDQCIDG
light: DVVMTQSPLSLPVTPGEPASISCRSSQSLVHSNRNTYLHWYLQKPGQSPQLLIYKVSNRFSGVPDRFSGSGSGTDFTLKISRVEAEDVGVYYCSQNTHVPPTFGQGTKLEIKRTVAAPSVFIFPPSDEQLKSGTASVVCLLNNFYPREAKVQWKVDNALQSGNSQESVTEQDSKDSTYSLSSTLTLSKADYEKHKVYACEVTHQGLSSPVTKSFNRGEC
notes: also called exemplary fusion protein
Consider B1, for which the EC50 was 0.34 nM in assay [1], 20.6 nM in assay [3], 7.92 nM in assay [4] and 23.2 nM in assay [5]. Further, the “EC50, CD137 Bioassay (NFkB-luc2/CD137 Jurkat cells co-cultured with Hep3B)” value in assay [2] came to 0.78 nM. In addition, in assay [2], the “EC50, CD137 Bioassay (NFkB-luc2/CD137 Jurkat cells co-cultured with HepG2)” value stood at 0.38 nM. In addition, in assay [6], the Kd was 0.657 nM. The koff in assay [6] stood at 0.000269 s⁻¹. Besides, in assay [6], the kon stood at 409000 M⁻¹ s⁻¹. The “EC50 (read off the curve)” value in assay [7] is ~20 nM.

For orientation: EC50 means the concentration needed to bring the measured effect to its halfway point. In general, Kd refers to the equilibrium constant for the complex coming apart. What is called koff is the first-order rate constant of dissociation. For orientation: kon means the rate constant with which the complex forms. The EC50 (read off the curve) is the concentration needed to bring the measured effect to its halfway point. Low readings indicate greater potency, high ones weaker potency.

The values are drawn from patent US20220153864A1 (Pieris, published 2022).
